Drawing on PMC7615710 (2023), this text covers Kd for one molecule.

For test [1], the target named is T1, ASPP1 C-terminal domain (CTD), tag cleaved (UniProt Q96KQ4 887-1090).
T1 chain: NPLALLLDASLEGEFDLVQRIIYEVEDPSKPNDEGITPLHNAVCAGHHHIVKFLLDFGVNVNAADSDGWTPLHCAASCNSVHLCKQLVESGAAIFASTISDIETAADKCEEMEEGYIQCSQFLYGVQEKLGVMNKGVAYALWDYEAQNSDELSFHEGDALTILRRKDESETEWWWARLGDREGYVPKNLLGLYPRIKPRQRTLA
The test is described as follows: ITC.

The target of test [2] is T2, ASPP2 C-terminal domain (CTD), tag cleaved (UniProt Q13625 925-1128).
T2 chain: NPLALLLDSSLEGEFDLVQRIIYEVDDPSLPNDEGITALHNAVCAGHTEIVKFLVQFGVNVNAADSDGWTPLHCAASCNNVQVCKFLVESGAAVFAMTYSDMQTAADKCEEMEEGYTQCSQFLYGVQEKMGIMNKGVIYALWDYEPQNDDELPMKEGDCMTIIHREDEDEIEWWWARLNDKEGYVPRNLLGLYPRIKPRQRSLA
The test is described as follows: ITC. A general note: In ITC the heat of successive injections is recorded.

For orientation: Kd means a measure of binding affinity in units of concentration. The low end stands for tighter binding, the high end for weaker binding. For the molecule LPPPKKAPTPPPRRRRTVGL [NS5A PRR peptide of HCV strain JFH-1 (20 aa)], the equilibrium dissociation constant (Kd) in test [1] was determined as 3780 nM; in test [2] it was 42.4 nM.
